{"source": "paper PMC5571166", "about": "“Mapping the key residues of SufB and SufD essential for biosynthesis of iron-sulfur clusters” (Scientific Reports, 2017)", "binders": {"B1": {"name": "SufC (natural protein, Escherichia coli)", "chain": "MLSIKDLHVSVEDKAILRGLSLDVHPGEVHAIMGPNGSGKSTLSATLAGREDYEVTGGTVEFKGKDLLALSPEDRAGEGIFMAFQYPVEIPGVSNQFFLQTALNAVRSYRGQETLDRFDFQDLMEEKIALLKMPEDLLTRSVNVGFSGGEKKRNDILQMAVLEPELCILDESDSGLDIDALKVVADGVNSLRDGKRSFIIVTHYQRILDYIKPDYVHVLYQGRIVKSGDFTLVKQLEEQGYGWLTEQQ", "notes": "SufC of the Escherichia coli sufABCDSE operon; also called SufC subunit of the SufBCD complex"}, "B2": {"name": "SufD (natural protein, Escherichia coli)", "chain": "MAGLPNSSNALQQWHHLFEAEGTKRSPQAQQHLQQLLRTGLPTRKHENWKYTPLEGLINSQFVSIAGEISPQQRDALALTLDSVRLVFVDGRYVPALSDATEGSGYEVSINDDRQGLPDAIQAEVFLHLTESLAQSVTHIAVKRGQRPAKPLLLMHITQGVAGEEVNTAHYRHHLDLAEGAEATVIEHFVSLNDARHFTGARFTINVAANAHLQHIKLAFENPLSHHFAHNDLLLAEDATAFSHSFLLGGAVLRHNTSTQLNGENSTLRINSLAMPVKNEVCDTRTWLEHNKGFCNSRQLHKTIVSDKGRAVFNGLINVAQHAIKTDGQMTNNNLLMGKLAEVDTKPQLEIYADDVKCSHGATVGRIDDEQIFYLRSRGINQQDAQQMIIYAFAAELTEALRDEGLKQQVLARIGQRLPGGAR", "notes": "SufD of the Escherichia coli sufABCDSE operon; One SufD per SufBCD complex (1:2:1); also called SufD subunit of the SufBCD complex"}}, "key": {"SufB^C254A": {"target": "T1, SufB^C254A (Escherichia coli, UniProt P77522 1-495, SufB^C254A)", "T1 construct": "SufB of the Escherichia coli sufABCDSE operon; source: pBBR-sufAB carrying the mutation, in bacterial extract", "T1 sequence": "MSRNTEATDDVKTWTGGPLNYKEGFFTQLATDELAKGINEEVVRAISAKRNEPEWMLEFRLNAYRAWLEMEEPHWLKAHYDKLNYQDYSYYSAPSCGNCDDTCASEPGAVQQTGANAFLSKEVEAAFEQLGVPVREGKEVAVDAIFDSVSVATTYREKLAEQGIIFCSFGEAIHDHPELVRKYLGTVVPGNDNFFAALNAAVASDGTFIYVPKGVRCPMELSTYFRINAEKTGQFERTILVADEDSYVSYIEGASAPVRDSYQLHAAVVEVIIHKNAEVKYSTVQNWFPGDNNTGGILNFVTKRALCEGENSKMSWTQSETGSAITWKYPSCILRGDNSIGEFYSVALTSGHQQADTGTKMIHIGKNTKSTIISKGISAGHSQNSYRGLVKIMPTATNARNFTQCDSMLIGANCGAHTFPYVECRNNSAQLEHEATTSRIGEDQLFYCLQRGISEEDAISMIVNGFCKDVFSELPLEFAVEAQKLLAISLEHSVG", "assay": "SEC; SufBCD complexes co-expressed in E. coli and co-purified on Phenyl FF, Q XL and Sephacryl S-200; eluted from gel filtration at about 160 kDa; subunit composition checked by SDS-PAGE of the purified sample", "settings": "both partners purified"}, "SufD": {"target": "B2", "assay": "SEC; SufBCD complexes co-expressed in E. coli and co-purified on Phenyl FF, Q XL and Sephacryl S-200; eluted from gel filtration at about 160 kDa; subunit composition checked by SDS-PAGE of the purified sample", "settings": "both partners purified"}}, "data": [{"binder": "B1", "values": [{"measurement": "binding result", "setting": "SufB^C254A", "value": "binds"}, {"measurement": "binding result", "setting": "SufD", "value": "binds"}]}, {"binder": "B2", "values": [{"measurement": "binding result", "setting": "SufB^C254A", "value": "binds"}]}]}
